Data on 3 molecules can be found in publication PMC8754639.

By Kd is commonly meant the concentration at which binding is half-saturated. A higher Kd goes with lower affinity. Broadly, the IC50 is the midpoint of a concentration-inhibition curve. A higher IC50 goes with weaker potency.

For series [1], the target named is T1, NONO (53-312) (UniProt Q15233 53-312).
T1 sequence: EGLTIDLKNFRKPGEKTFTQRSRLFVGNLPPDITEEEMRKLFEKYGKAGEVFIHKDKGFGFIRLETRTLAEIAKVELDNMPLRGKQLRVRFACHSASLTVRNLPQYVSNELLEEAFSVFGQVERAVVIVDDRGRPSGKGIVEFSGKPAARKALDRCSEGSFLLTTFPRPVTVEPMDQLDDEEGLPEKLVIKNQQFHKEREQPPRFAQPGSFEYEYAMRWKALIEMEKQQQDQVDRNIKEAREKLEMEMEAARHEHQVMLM
As to the kind of experiment: EMSA.

The next series deals with T2, DHX36 (RHAU) (UniProt Q9H2U1 1-1008).
T2 sequence: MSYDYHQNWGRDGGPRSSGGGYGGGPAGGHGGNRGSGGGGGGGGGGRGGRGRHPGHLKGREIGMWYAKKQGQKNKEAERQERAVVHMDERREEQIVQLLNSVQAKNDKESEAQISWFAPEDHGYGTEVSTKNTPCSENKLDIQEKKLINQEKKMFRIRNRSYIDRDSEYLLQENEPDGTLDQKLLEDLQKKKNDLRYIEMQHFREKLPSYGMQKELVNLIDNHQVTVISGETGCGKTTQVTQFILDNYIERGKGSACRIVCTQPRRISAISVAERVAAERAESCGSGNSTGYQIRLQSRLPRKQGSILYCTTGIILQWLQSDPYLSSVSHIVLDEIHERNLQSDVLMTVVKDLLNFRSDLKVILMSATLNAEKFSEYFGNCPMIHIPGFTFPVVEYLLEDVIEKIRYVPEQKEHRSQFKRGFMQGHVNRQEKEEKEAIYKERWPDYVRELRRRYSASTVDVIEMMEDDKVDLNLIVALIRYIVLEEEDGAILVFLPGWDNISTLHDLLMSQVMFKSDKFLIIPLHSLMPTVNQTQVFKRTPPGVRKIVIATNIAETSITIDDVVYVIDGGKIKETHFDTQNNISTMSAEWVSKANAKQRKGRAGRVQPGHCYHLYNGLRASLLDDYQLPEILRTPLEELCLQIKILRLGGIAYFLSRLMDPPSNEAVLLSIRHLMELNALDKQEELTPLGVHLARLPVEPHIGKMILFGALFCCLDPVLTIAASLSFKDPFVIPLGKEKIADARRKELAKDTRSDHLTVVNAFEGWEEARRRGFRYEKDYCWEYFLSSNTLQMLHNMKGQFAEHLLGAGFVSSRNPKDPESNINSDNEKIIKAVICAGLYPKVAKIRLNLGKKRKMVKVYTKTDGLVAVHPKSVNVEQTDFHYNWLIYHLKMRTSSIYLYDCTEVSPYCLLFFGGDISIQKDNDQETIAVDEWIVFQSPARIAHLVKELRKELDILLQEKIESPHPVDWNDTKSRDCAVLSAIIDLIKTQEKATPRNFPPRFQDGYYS
Briefly: MST.

For another series, the target named is T3, RHAU53 peptide (UniProt Q9H2U1 53-105).
T3 sequence: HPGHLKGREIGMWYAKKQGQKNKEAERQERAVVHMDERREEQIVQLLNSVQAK
As to the kind of experiment: MST competition.

Series [2] addresses T1, NONO (53-312). As to the kind of experiment: filter binding.

In the case of AGGGUGGGCUUUUGUUGAUGAGGGAGGGGA (structured_RNA) [MALAT1 rG4_04 (FAM)], the Kd was found to be 46.9 ± 12.1 nM with NONO (53-312) [1] and 130 ± 16 nM with DHX36 (RHAU). This molecule also displayed an IC50 with RHAU53 peptide of 621 ± 95.3 nM.

Molecule AGGGGAGGGAAAGGGGGAAAGCGGGC (structured_RNA) [MALAT1 rG4_09 (FAM)] registered a Kd with NONO (53-312) [1] of 80.9 ± 18.1 nM. With AGAAGAGAGAAAGAAAGAAAGCGAGC (ssRNA) [MALAT1 rG4_09 MUT (biotin)], in the series with NONO (53-312) [2], the binding result was “no binding”.
